According to the supplement of paper PMC10126150:
± gives the standard deviation of the averaged measurements.

tested on: ATP; test: switch fluorescence ratio, 500 uM ATP over buffer (Cy3 cluster intensity, sum of 5 cycles each) (fold (ratio)); higher = stronger signal-on switching upon ATP binding; sequences stand for … in TCGTCGGCAGCGTCAGATGTGTATAAGAGACAGTTTTTTTTTTTTTTTTTTTTTTTTT…TC; details: aptamer strand: ATP DNA aptamer (quencher-CACCTGGGGGAGTATTGCGGAGGAAGG + anchor), 100 nM annealed; ATP concentration: 500 uM
Outline: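 Exposure to 500 uM ATP lasted 15 min at 22 °C before imaging, and a selection-buffer image was taken beforehand, for Cy3-labelled switching-strand clusters on a modified Illumina MiSeq flow-cell annealed to 100 nM quencher-labelled ATP aptamer. Five buffer/ATP cycles were run with NaOH stripping and re-annealing between them. The fluorescence ratio per cluster is summed target-cycle over summed buffer-cycle Cy3 intensity, averaged per switch-domain sequence. Clusters outside 100-1000 RFU were excluded.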

| Sequence | switch fluorescence ratio |
| --- | --- |
| CGGGATTGGT | 1.01 ± 0.13 |
| TGATTCGGCG | 1.03 ± 0.069 |
| TCGGGTGTGT | 0.9889 ± 0.009 |
| ATGTTTTCTT | 0.998 ± 0.016 |
| CCGGGGAAGT | 0.978 ± 0.031 |
| TCTGTGCAGG | 1 ± 0.015 |
| CATGATTTAT | 1 ± 0.054 |
| TGACTGGGTT | 1.02 ± 0.047 |
| CGTCTATGGG | 1 ± 0.014 |
| TTAACTGGTA | 0.9904 ± 0.0016 |
| AGGGGGAAGT | 0.99 ± 0.045 |
| GAGATATATG | 0.983 ± 0.052 |
| TTTTGAACCC | 0.984 ± 0.08 |
| AAGATAGTAC | 1.04 ± 0.024 |
| AAAGCTGCTT | 0.987 ± 0.024 |
| GTTGACCTCG | 0.992 ± 0.03 |
| TGGAAGGTT | 0.987 ± 0.019 |
| TTGGTTATCT | 1.01 ± 0.035 |
| ATTTGATTCT | 0.984 ± 0.023 |
| TTGGATGTGG | 1.02 ± 0.022 |
| TTCTAAGGAG | 1.017 ± 0.0022 |
| GAGATTATGG | 0.966 ± 0.022 |
| TCGAGGAAGT | 0.999 ± 0.062 |
| TAAATTTGTA | 0.99 ± 0.028 |
| GTTGTATCAC | 0.9832 ± 0.0097 |

| Sequence | switch fluorescence ratio |
| --- | --- |
| TATGAGGGGG | 1.02 ± 0.04 |
| AGATTGGTTG | 0.985 ± 0.012 |
| GGGTCTGAGT | 0.9621 ± 0.009 |
| GGAATGTGGG | 0.984 ± 0.042 |
| TGGTACCACT | 0.996 ± 0.014 |
| CACAATGCAG | 1 ± 0.033 |
| AATGCAACAG | 1.15 ± 0.056 |
| TTACGAAAAG | 1.08 ± 0.14 |
| ACGAGTCTGC | 0.96588 ± 0.00086 |
| GGTAGGGATA | 1.08 ± 0.11 |
| TAATGTGTTA | 1.04 ± 0.13 |
| GGGTTTGACT | 0.998 ± 0.031 |
| TTAAGGTTGC | 0.989 ± 0.019 |
| TTATAGTCGT | 1 ± 0.015 |
| TCAGATTGGC | 1.04 ± 0.12 |
| AGTGGGCTAT | 0.999 ± 0.027 |
| CAGGGTTAAT | 1.012 ± 0.0094 |
| AATGGGTATC | 0.9923 ± 0.0088 |
| CTCTTTGGGG | 0.976 ± 0.013 |
| TTACGAAAGA | 1.07 ± 0.032 |
| TATAGATGAC | 0.989 ± 0.017 |
| CCATGTATAA | 1.02 ± 0.016 |
| AGTGCCTATG | 0.994 ± 0.019 |
| TAGTCATTTG | 0.962 ± 0.0097 |
| GGGAATGTTT | 0.978 ± 0.03 |

| Sequence | switch fluorescence ratio |
| --- | --- |
| CGTAAAGGCC | 0.9465 ± 0.0012 |
| AATTTAGTAG | 1 ± 0.013 |
| GCAGGGGGTG | 1.11 ± 0.076 |
| CAAATTTCAT | 0.985 ± 0.023 |
| AGCGGAGTGA | 1.007 ± 0.0093 |
| CCGATAATAG | 5.21 ± 2.2 |
| AGGCAAAGGG | 0.995 ± 0.044 |
| ATTGTTATTG | 0.967 ± 0.065 |
| GGAAAAAGTG | 0.991 ± 0.014 |
| ATTCTACGGA | 1.02 ± 0.021 |
| AACCTGGGTA | 1.008 ± 0.0035 |
| TGTTGCCGTT | 0.886 ± 0.057 |
| GAATGACCCG | 1.11 ± 0.012 |
| AAAAATCACT | 1.04 ± 0.039 |
| GACCGGGCCC | 1.01 ± 0.015 |
| TTTGTATGGT | 0.976 ± 0.011 |
| TATCGTGGAG | 1.04 ± 0.042 |
| AACTGGTCGC | 1.14 ± 0.07 |
| CTATTAGATG | 0.994 ± 0.03 |
| TGGGAATACG | 1.11 ± 0.048 |
| CAATTTTGGT | 1.01 ± 0.031 |
| TAGCAGAGGG | 1.01 ± 0.023 |
| GGAGTTAGTC | 1.01 ± 0.021 |
| GTGGGGCGGT | 0.9832 ± 0.006 |
| GAGAATGAGG | 0.962 ± 0.0093 |

| Sequence | switch fluorescence ratio |
| --- | --- |
| CCTCGGTATG | 1.24 ± 0.025 |
| CTTAGGGTTT | 0.988 ± 0.019 |
| TCGAGGGTAG | 1.02 ± 0.018 |
| GGCGGCTTGG | 1.005 ± 0.0031 |
| GTTAAAAGGT | 1 ± 0.039 |
| GACCATTGGA | 1.006 ± 0.0011 |
| TAGGGGTGGG | 1.0453 ± 0.00085 |
| TCCTGGGAT | 1.01 ± 0.03 |
| TCGTAGTGGG | 1.01 ± 0.054 |
| GAGGGTTTGT | 0.973 ± 0.039 |
| TAAAATGGTG | 1.01 ± 0.035 |
| CTGGTACGGA | 1.0245 ± 0.00032 |
| CCGGTTTGGA | 1.13 ± 0.17 |
| GGTTACTGGA | 1.02 ± 0.018 |
| ACAGTCGACT | 1.032 ± 0.0074 |
| ATTTGTTCTG | 0.962 ± 0.038 |
| AAGCTGGTAC | 1.99 ± 0.1 |
| TTGGGCCGGG | 0.991 ± 0.02 |
| TAATTTTAAA | 0.988 ± 0.018 |
| TCAGGTGGAG | 1.03 ± 0.041 |
| GGGCTCCATG | 0.9825 ± 0.0044 |
| TTATATTAGC | 1 ± 0.054 |
| GAGACGTTGG | 0.985 ± 0.014 |
| GTTATAAGTC | 1.01 ± 0.026 |
| CGGTGTTGTG | 0.986 ± 0.024 |
